Results on four molecules are retold here after publication PMC5233613, “Structural insights into the recognition of phosphorylated FUNDC1 by LC3B in mitophagy” (Protein & Cell, 2016).

As usually defined, the Kd is a measure of binding affinity in units of concentration. A low value points to higher affinity. Usually stoichiometry N stands for a count of units in the complex or per binding partner.

What all share (experiment): ITC; MicroCal iTC200, 25 °C; proteins 0.25 mmol/L and peptides 3 mmol/L, dialyzed against buffer B (20 mmol/L Tris-HCl, 200 mmol/L NaCl, 1 mmol/L EDTA, pH 8.0); single binding site model
Common to all, as to details: both partners purified
Background: In ITC the heat of successive injections is recorded.

Test [1] deals with LC3B R11A (human, UniProt Q9GZQ8 1-120, R11A).
For test [2], the target named is microtubule-associated protein light chain 3 beta (LC3B), wild type, full-length 1-125 (human, UniProt Q9GZQ8 1-120).
Test [3] deals with LC3B R10A (human, UniProt Q9GZQ8 1-120, R10A).
The target in test [4] is LC3B R11E (human, UniProt Q9GZQ8 1-120, R11E).
The target of test [5] is LC3B R10E (human, UniProt Q9GZQ8 1-120, R10E).
Test [6] deals with LC3B K49E (human, UniProt Q9GZQ8 1-120, K49E).
The target of test [7] is LC3B K49R (human, UniProt Q9GZQ8 1-120, K49R).
Test [8] deals with LC3B R70E (human, UniProt Q9GZQ8 1-120, R70E).
In test [9] the target is LC3B K51A (human, UniProt Q9GZQ8 1-120, K51A).
Test [10] deals with LC3B D19A (human, UniProt Q9GZQ8 1-120, D19A).
For test [11], the target named is LC3B L53A (human, UniProt Q9GZQ8 1-120, L53A).
The target of test [12] is LC3B R70A (human, UniProt Q9GZQ8 1-120, R70A).
Test [13] concerns the target LC3B I23A (human, UniProt Q9GZQ8 1-120, I23A).
In test [14] the target is LC3B K49A (human, UniProt Q9GZQ8 1-120, K49A).
Test [15] deals with LC3B F7A (human, UniProt Q9GZQ8 1-120, F7A).
The target in test [16] is LC3B T50A (human, UniProt Q9GZQ8 1-120, T50A).
In test [17] the target is LC3B V46A (human, UniProt Q9GZQ8 1-120, V46A).
Test [18] addresses LC3B D48A (human, UniProt Q9GZQ8 1-120, D48A).
In test [19] the target is LC3B L47A (human, UniProt Q9GZQ8 1-120, L47A).

Non-standard residues stand in square brackets, D forms with d. No end group written: not given here. pY = N[C@@H](Cc1ccc(OP(=O)(O)O)cc1)C(=O)O; pS = N[C@@H](COP(=O)(O)O)C(=O)O

B1: FUNDC1 LIR peptide 10-25 phosphorylated at Ser13 (peptide)
peptide: DYE[pS]DDDSYEVLDLTE
notes: also called FUNDC1 pS13; pS13 peptide; source: synthetic peptide (GL Biochem, Shanghai)
In the case of B1, the Kd was determined as 11.2 ± 0.73 µM in [1]; 4.63 ± 0.13 µM in [2]; 28.5 ± 2.97 µM in test [3]; 17.1 ± 1.05 µM in test [4]; 34 ± 3.46 µM in [5]. The dH in test [1] is -4.1 kcal/mol; in test [2] it was -3.81 kcal/mol; in test [3] it was -3.67 kcal/mol; in test [4], -2.39 kcal/mol; in test [5], -2.83 kcal/mol. The “stoichiometry N” value in [1] was determined as 1.11; in [2], 1.13; in test [3], 1.02; in test [4] it was 1.04; in test [5] it was 1.03.

B2: FUNDC1 LIR peptide 10-25 phosphorylated at Ser17 (peptide)
peptide: DYESDDD[pS]YEVLDLTE
notes: also called FUNDC1 pS17; FUNDC1 pS17 peptide; source: synthetic peptide (GL Biochem, Shanghai)
For the molecule B2, the dissociation constant Kd was 120 ± 5.72 µM in test [6]; 0.33 ± 0.07 µM in test [7]; 61 ± 3.44 µM in test [8]; 5.92 ± 0.75 µM in test [9]; 2.39 ± 0.3 µM in [10]; 0.59 ± 0.06 µM in test [2]. The Kd in test [11] amounted to 0.97 ± 0.14 µM; in test [12], 15.8 ± 1.5 µM; in test [13], 4.85 ± 0.25 µM; in test [14] it was 3.56 ± 0.21 µM. Besides, the dH was -4.49 kcal/mol in [6]; -5.78 kcal/mol in [7]; -2.54 kcal/mol in test [8]; -2.66 kcal/mol in [9]; -2.78 kcal/mol in test [10]; -3.51 kcal/mol in test [2]. The dH in test [11] is -2.61 kcal/mol; in [12], -1.8 kcal/mol; in test [13] it was -1.53 kcal/mol; in test [14], -4.9 kcal/mol. Moreover, the “stoichiometry N” value in test [6] amounted to 0.93; in test [7], 1.17; in test [8], 1.03; in [9], 1.03; in test [10], 1.16; in [2], 1. Moreover, the “stoichiometry N” value came out at 1.03 in test [11], 1.04 in test [12], 1.04 in test [13] and 1.08 in test [14].

B3: FUNDC1 LIR peptide 10-25 phosphorylated at Tyr18 (peptide)
peptide: DYESDDDS[pY]EVLDLTE
notes: also called FUNDC1 pY18; pY18 peptide; source: synthetic peptide (GL Biochem, Shanghai)
With B3, in test [2], the Kd stood at 16.8 ± 2.1 µM, the dH was -0.93 kcal/mol and the “stoichiometry N” value worked out at 1.16.

B4: FUNDC1 LIR peptide 10-25, unphosphorylated (peptide)
peptide: DYESDDDSYEVLDLTE
notes: FUNDC1 (Fun14 domain-containing protein 1), LIR and flanking residues 10-25; also called unphosphorylated FUNDC1 peptide; FUNDC1 peptide; source: synthetic peptide (GL Biochem, Shanghai)
On to B4, for which the Kd worked out at 3.52 ± 0.23 µM in test [15]; 2.81 ± 0.31 µM in test [16]; 1.59 ± 0.19 µM in test [17]; 5.62 ± 0.25 µM in [1]; 1.78 ± 0.16 µM in test [2]; 11.4 ± 1.14 µM in test [3]. The Kd in [18] was 1.17 ± 0.15 µM; in test [19], 3.07 ± 0.64 µM. The dH in [15] was -3.08 kcal/mol; in [16] it was -2.65 kcal/mol; in test [17], -4.86 kcal/mol; in test [1], -4.51 kcal/mol; in [2] it was -3.15 kcal/mol; in test [3], -3.56 kcal/mol. Moreover, the values for the dH in test [18] and in test [19] were -3.03 kcal/mol and -2.06 kcal/mol, respectively. The “stoichiometry N” value turned out to be 1.17 in test [15]; 1.02 in test [16]; 1.02 in [17]; 1.12 in [1]; 1.02 in test [2]; 1.01 in test [3]. Moreover, the “stoichiometry N” value was determined as 0.98 in [18] and 1.19 in test [19].
